The labels stand for the following.
B1: Twister Ribozyme (parent)
chain: AACACUGCCAAUGCCGGUCCCAAGCCCGGAUAAAAGUGGAGGGGGCGG

From the RNAGym collection of RNA variant scans (doi:10.7554/elife.80360) come the findings set out here.

The data set covers variants of B1. As to the kind of experiment: self-cleavage, relative activity (ratio to wild type); higher = more cleavage; co-transcriptional.
As for A22G C25A, the self-cleavage stood at 0.0752.

Regarding C14G G42C, the self-cleavage came to 0.095.

With A2C G43C, the self-cleavage was determined as 0.0309.

For C26G G41C, the self-cleavage was 0.0955.

For the variant U6C A23C, the self-cleavage amounted to 0.0308.

As for A11C A33G, the self-cleavage amounted to 0.893.

For U12A C14G, the self-cleavage was 0.0875.

Consider C3A G45U, for which the self-cleavage turned out to be 0.152.

With C19G G48C, the self-cleavage turned out to be 0.23.

For the variant C9G A30G, the self-cleavage amounted to 0.791.

Take C20G A32G: the self-cleavage was found to be 0.0903.

As to C14A C19G, the self-cleavage is 0.359.

On to C20A G38U, for which the self-cleavage is 0.0791.

On to G29A G43U, for which the self-cleavage amounted to 0.326.

In the case of G13C A40G, the self-cleavage is 0.0963.

Regarding C9U A10C, the self-cleavage came out at 0.948.

In the case of C15U C25A, the self-cleavage was 0.178.

For the variant G29A G42A, the self-cleavage worked out at 0.284.

Regarding G13C C27G, the self-cleavage came to 0.104.

As to C3A U6C, the self-cleavage is 0.0414.

Turning to C20U G39A, the self-cleavage worked out at 0.288.

Turning to G16C C25U, the self-cleavage was determined as 0.188.

As to A10U C20G, the self-cleavage stood at 0.131.

For the variant A10U C20A, the self-cleavage was determined as 0.168.

For C9U A23U, the self-cleavage is 0.0746.

Consider C5G G47C, for which the self-cleavage worked out at 0.269.

Take A11U A33G: the self-cleavage was found to be 0.839.

In the case of A32U G45A, the self-cleavage amounted to 0.823.

Consider C27A G39U, for which the self-cleavage amounted to 0.0773.

C20A G39C: the self-cleavage turned out to be 0.0811.

G16C A23G: the self-cleavage turned out to be 0.092.

Take C3A C26U: the self-cleavage amounted to 0.132.

Regarding C8A U37A, the self-cleavage turned out to be 0.225.

As to U6G C19U, the self-cleavage turned out to be 0.264.

Turning to G17C A23G, the self-cleavage was determined as 0.0841.

Consider G41C C46U, for which the self-cleavage was 0.282.

G29U A40G: the self-cleavage was 0.167.

On to A33G A34U, for which the self-cleavage is 0.461.

Turning to A33G A34G, the self-cleavage came to 0.253.

On to A11C U12A, for which the self-cleavage stood at 0.907.

For the variant A34C G48A, the self-cleavage turned out to be 0.187.

As to G29A U37G, the self-cleavage was 0.395.

Regarding G7U G24A, the self-cleavage was determined as 0.0738.

A4C C5A: the self-cleavage stood at 0.0937.

Take G42U G48C: the self-cleavage was 0.571.

C9A C19U: the self-cleavage was 0.197.

In the case of A22C G44U, the self-cleavage was determined as 0.967.

U31A G42A: the self-cleavage amounted to 0.349.

Turning to U31A G42C, the self-cleavage worked out at 0.503.

On to A2G G43A, for which the self-cleavage was determined as 0.104.

With G24C G29U, the self-cleavage was 0.0988.

Consider U31A, for which the self-cleavage was 0.751.

Take G16A G36C: the self-cleavage stood at 0.133.

For the variant C9U C20G, the self-cleavage worked out at 0.0672.

With C9G A33C, the self-cleavage was 0.548.

As for U18A G39C, the self-cleavage came out at 0.102.

In the case of A2U A40G, the self-cleavage was 0.163.

On to A22U G45U, for which the self-cleavage turned out to be 0.57.

Consider U37A G41U, for which the self-cleavage was 0.115.

As for G36U G43C, the self-cleavage was 0.124.

Turning to A22U G29A, the self-cleavage was 0.644.

A1U U18G: the self-cleavage worked out at 0.0681.

On to G13C G28U, for which the self-cleavage came out at 0.255.

Take A11U A23C: the self-cleavage is 0.241.

As to A35G A40C, the self-cleavage turned out to be 0.142.

As for C3U G7U, the self-cleavage is 0.0522.

On to A10U A30C, for which the self-cleavage worked out at 0.784.

In the case of C20G G48A, the self-cleavage was 0.124.

C15U A23C: the self-cleavage worked out at 0.134.

In the case of C15G G28A, the self-cleavage was found to be 0.624.

Turning to A30U U31G, the self-cleavage was determined as 0.993.

On to U18G A30U, for which the self-cleavage was found to be 0.0738.

U12C C19G: the self-cleavage is 0.428.

On to C5A A32U, for which the self-cleavage stood at 0.454.

On to C14U A22U, for which the self-cleavage amounted to 0.848.

Consider C3A G42U, for which the self-cleavage was 0.0908.

As to C3U A4C, the self-cleavage is 0.106.

Turning to A4G U12G, the self-cleavage was determined as 0.673.

Consider G7U U37C, for which the self-cleavage is 0.0889.

Turning to A10C A40C, the self-cleavage is 0.253.

As to A10U G48C, the self-cleavage was 1.09.

As to G7C G36U, the self-cleavage amounted to 0.0725.

Turning to G39A A40U, the self-cleavage worked out at 0.161.

Take U6A C21U: the self-cleavage was found to be 0.0948.

Consider G16U A40C, for which the self-cleavage turned out to be 0.156.

With G39U G41U, the self-cleavage stood at 0.149.

For the variant G39U G41A, the self-cleavage is 0.0926.

For C19G G29U, the self-cleavage came out at 0.29.

In the case of G24A G47U, the self-cleavage was found to be 0.0892.

In the case of A2U C3G, the self-cleavage was determined as 0.113.

For the variant G36A G41C, the self-cleavage came out at 0.133.

On to G24C U37C, for which the self-cleavage amounted to 0.0778.

For the variant C15A G36C, the self-cleavage is 0.0919.

Regarding C5U U31C, the self-cleavage amounted to 0.804.

U6A G16U: the self-cleavage worked out at 0.43.

In the case of G17C A40G, the self-cleavage worked out at 0.0717.

With A1C U18C, the self-cleavage worked out at 0.17.

Regarding G24U C27A, the self-cleavage was 0.106.

Regarding C26G G45A, the self-cleavage was determined as 0.154.

G45U G47A: the self-cleavage worked out at 0.771.

As for G17A G41A, the self-cleavage is 0.148.

Regarding C26G G48A, the self-cleavage is 0.107.

In the case of C19G G24C, the self-cleavage was found to be 0.125.

On to A4G G48U, for which the self-cleavage turned out to be 0.979.

On to C19U G43A, for which the self-cleavage is 1.04.

Consider C8U C20A, for which the self-cleavage stood at 0.0588.

Take C19U A22U: the self-cleavage is 0.601.

With C8U U31C, the self-cleavage amounted to 0.713.

C3A C15U: the self-cleavage was determined as 0.108.

Take U37C G42C: the self-cleavage is 0.196.

Turning to G16A G39U, the self-cleavage was found to be 0.187.

Consider A32U G43C, for which the self-cleavage stood at 0.139.

With U6A U12G, the self-cleavage was 0.903.

G16C U31A: the self-cleavage came to 0.657.

As for A2C C5U, the self-cleavage came out at 0.0782.

Regarding C20A C26U, the self-cleavage amounted to 0.0622.

For C27G G39U, the self-cleavage came to 0.123.

As to A4G G44U, the self-cleavage came out at 0.968.

Turning to C5A C20G, the self-cleavage amounted to 0.0697.

Take C14G C27A: the self-cleavage was 0.0743.

As for G7C G43A, the self-cleavage stood at 0.0617.

On to U6G C25G, for which the self-cleavage was 0.0804.

Take C25A G48A: the self-cleavage was found to be 0.106.

Turning to C21G G44C, the self-cleavage worked out at 0.0843.

For the variant C15A A22U, the self-cleavage stood at 0.24.

Take G7U U18G: the self-cleavage came out at 0.0649.

For G7U U18C, the self-cleavage was 0.0819.

Turning to G16U A23G, the self-cleavage was 0.0652.

On to C8U C19U, for which the self-cleavage came out at 0.35.

G28A A33U: the self-cleavage was 0.707.

In the case of A2U G42C, the self-cleavage was 0.134.

Consider G41A G43A, for which the self-cleavage amounted to 0.171.

On to A11U G42C, for which the self-cleavage turned out to be 0.623.

Regarding A23U A30C, the self-cleavage worked out at 0.115.

In the case of A30U A32U, the self-cleavage came to 0.879.

Take C5G G48C: the self-cleavage is 0.77.

Regarding C14G G24U, the self-cleavage stood at 0.0521.

C20A A35U: the self-cleavage amounted to 0.151.

In the case of G13A C15G, the self-cleavage worked out at 0.118.

On to G13U G28C, for which the self-cleavage is 0.405.

Regarding G28U G29A, the self-cleavage is 0.947.

With C3U C19U, the self-cleavage was 0.374.

As for C25A G28U, the self-cleavage is 0.146.

As for G13U C14U, the self-cleavage amounted to 0.635.

As to G17C C27A, the self-cleavage is 0.0647.

In the case of G13U C21G, the self-cleavage turned out to be 0.0567.

Regarding G38C G42C, the self-cleavage is 0.238.

For the variant C19G U31C, the self-cleavage amounted to 0.492.

For the variant U12G U18C, the self-cleavage was found to be 0.437.

As for G13A G42C, the self-cleavage turned out to be 0.34.

C19G U37A: the self-cleavage amounted to 0.0632.

With G36C G43U, the self-cleavage came to 0.116.

For C14U A35G, the self-cleavage came out at 0.917.

For the variant A1C G44U, the self-cleavage stood at 0.133.

As for C8U G39A, the self-cleavage came to 0.161.

In the case of G13C C19G, the self-cleavage amounted to 0.125.

In the case of A10G G28A, the self-cleavage was found to be 1.08.

For the variant C21G A33G, the self-cleavage came to 0.03.

C14G U31G: the self-cleavage worked out at 0.158.

In the case of A4G A32U, the self-cleavage turned out to be 0.945.

With U18G A35C, the self-cleavage was determined as 0.0813.

For C8A A10U, the self-cleavage was 0.239.

On to C20G C25U, for which the self-cleavage is 0.0692.

U37C A40G: the self-cleavage stood at 0.161.

With G43C G44U, the self-cleavage amounted to 0.455.

A33U G38A: the self-cleavage was determined as 0.946.

As for C8U A34C, the self-cleavage was 0.134.
